Results: a protein production outcome set (Wang et al. 2014)

Assay: label from the status in PepcDB records
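Note: failed if final PepcDB status was selected cloned or expressed and not failed if soluble or beyond.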

Sequence: MTSKKNSDVIYKSSSNILNEMRAGLIKGAGQDMERIKKRPLIAIANSHSELTTGHAHLAGLGAKVKQGIIAAGGEFAEFNVPAPCDGIAMAHDGMRYVLAQRDLIADIVETHVRSQAFDAVVFIAGCDKINPGMMMAMGRLDLPSLFLAGGPGQMNIRNTPTFNGNIDHGNYFNSPLEFKETFNCASCGACEFMGTANTFQCLAEALGICLPGSANIPAWHSDKLAAARATGEHIVHLFKEGITARQIMTKEAFNNALVMNMAIGGSTNAALHLPAIAHSAGIEMDIKAFETVDHIPTLLAISPNGPYGVQDLWAAGGMPAVMKVMQSDLDTSCLTVTGLPLQATIDNATILNPKVIPERSKPNRQEPGITVLRGNLAPEGCVIKQAGVKPELMYTSGPAICFDSEDDAINMIQDGKLKEGQVIVLRYMGPKGAPGMPEMLGATLALKVAGLSSASLITDGRFSGATSGPCVGHITPEASNGGFIAFIEDGDIITVDIKNRSIHCDVSDEEIEKRKQNWAPTIKPVAFGFMERYRKHVKTASEGAILD
- protein production: failed

Sequence: MVLSKTASKSDDSIHSTFASRYVRNSISRFEIPKNSIPKEAAYQIINDELKFDGNPRLNLASFVTTWMEPECDKLMMESINKNNVEMDQYPVTTDLQNRCVNMIARLFNAPLGDGEAAIGVGTVGSSEAVMLAGLAFKRQWQNKRKALGLPYDRPNIVTGANIQVCLEKFARYFEVELKEVKLREGYYVMDPDKAVEMVDENTICVVAILGSTLTGEFEDVKLLNDLLVEKNKKTGWDTPIHVDAASGGFIAPFLYPDLEWDFRLPLVKSINVSGHKYGLVYAGIGWVVWRTKTDLPDELIFHINYLGADQPTFTLNFSKGSSQVIAQYYQLIRLGFEGYRNVMDNCRENMMVLRQGLEKTGRFNIVSKENGVPLVAFSLKDSSRHNEFEVAEMLRRFGWIVPAYTMPADAQHVTVLRVVIREDFSRTLAERLVADFEKVLHELDTLPARVHAKMASGKVNGVKKTPEETQREVTAYWKKFVDTKTDKNGVPLVASITNQ
- protein production: failed

Sequence: MLALKKKSVKAAFEALIPKIMEEGTEMVSEDGQKCKELMNTIIEITDPSDKSISEKYPLGERAVESYTEQLLHGSAATFVYDYHERIFEYPSDKKELKNDQIDYIVNKLKEQINSRRAIAITWNPYIDQTVKDVPCLQIVQFLIRDNKLYQTVLFRSNDAFLAFHANAIGLIALGEMVAEKLEIELAKYTHHSVSMHVYSERDIDALKKF
- protein production: not failed

Sequence: MRTAVIIPFYQREAGILSRALDSVDGQILPEGHSLTVFVIDDESPVSARSEVEGRQGKVPVRLIAQKNGGPGAARNAGLDAVAAEGFDHVAFLDSDDIWQPTHLADALDLLARGYDFHFCDHQRTDDDITYFERTPALRRMREERHAGVTVLDAEAPILAFDQPSIMAASVDTYLSQTSTVVVRQSFVETLRFDPRLRNAGEDQLFWLSLIAAGARTVVSWKMNVLCGRGVNVYFDAFDWKSTKVVDRTGYMLMFFHTVGRRLSLTASDRRTVADRIRRYRRAYSYLFLRALLQGRVPTLSLTWKLAALDPGLVPAMPLRFLAVLPNREAESLQWLEHHHHHH
- protein production: failed

Sequence: MVKKIVNPINIIVVVMHISVSIYALFVNVPFKAELFKDNVVLCIYVITFYIGFLLLGDFFRERKIFRKRNDGNRESKTISIIGGIFLFAGILLGMSSVMTIYNIKVDASEYSIGRIIFDTIKVDNVKRESTTSKPQGIFVQRSITTIRTEEVDGISVKSNKRVEFKHCYLYGWQVIEGKIYNVKYLPTTHRILSIEEKK
- protein production: failed

Sequence: MLQKDPCLDDILENSEKLENNSNKKNIDSIDTIKLSDIIEKMIEINSIVRIEKIFEEKIVSQNPVVNVVVNDGSARGLLSLWSEQISLLNELNEGDAILIENAHAPKKYKDRIHLALSKSGKISKIESDLPTIDELLKKSSAQRNDFSRKSISELKEGIGAELRGLIVAIHSKEPYFPVCDKCNKKMTLKKGYAVCKCGNKVDEEDENLKWLFLCTCTLDDGSGTIRVTLNNNTNYLDLEELKKIIIDDEEILDVLNNKLLGLDILTSGFTIYDEYLKDTAFRCNNWNKIDIMEEFNKKLKGLEHHHHHH
- protein production: not failed

Sequence: MAVLGQLGFMIAFLSGGVAAGHFGLLTERRTDILTTLVFTVALPALIFRSTYDRPLQEIISPALLGGFWVIIALTITLGWLVHRRLESADRRSVSVVQSYHSNMGFLGLPLVAATMGSEATAVASVILGIGAVTHVPVTVFLLVRINGSDASLLSECRKLVTNPVLIALAAGITASVLSLSVPESLISALGPPAELALPVALLCIGATLDTDLPVSDLQKTVSVVGLKVLWMPALAWLVYSSLSMDTTALGAAVVMLGTPTAVSTYVYTTELGGDAAFASLNVFTSTVVSIGTLSLLVWLFT
- protein production: failed

Sequence: MIDDMAVPLTFTDAAANKVKSLISEEENTDLKLRVYITGGGCSGFQYGFTFDEKVNDGDLTIEKSGVQLVIDPMSLQYLIGGTVDYTEGLEGSRFTVNNPNATSTCGCGSSFSI
- protein production: not failed

Sequence: MGKENSKVVVLDFWASPYAMRTKVALREKGVEFEVQEEDLWNKSELLLKSNPVHKKVPVLIHNNTPISESLIQVQYIDETWTDAASFLPSDPQSRATARFWADYADKTISFEGGRKIWGNKKGEEQEKGKKEFLESLKVLEAELGDKSYFGGETFGYVDITLVPFYSWFYALEKCGDFSVEAECPKIVAWGKRCVERNSVAATLPESEKVYQQVLKLRQIFGVE
- protein production: failed

Sequence: SDSAFANLDAAGFLQIWQHFDADDNGYIEGKELDDFFRHMLKKLQPKDKITDERVQQIKKSFMSAYDATFDGRLQIEELANMILPQEENFLLIFRREAPLDNSVEFMKIWRKYDADSSGYISAAELKNFLKDLFLQHKKKIPPNKLDEYTDAMMKIFDKNKDGRLDLNDLARILALQENFLLQFKMDASSQVERKRDFEKIFAHYDVSRTGALEGPEVDGFVKDMMELVRPSISGGDLDKFRECLLTHCDMNKDGKIQKSELALCLGLKHKP
- protein production: not failed

Sequence: MGQKKYVELSKDIFIFSYLCGGINFTDIANLTQENIVNGRLHYIRQKTGKLIKIGIPQEAMQIIKKYTDESNGYLFPILNVKVHKTALQKQNRIHKIRGKVNDILKTLGKRLGIEANITTYVARHSFASVLKKSGVNIALISEALGHSDLATTQIYLDSFDNEQVDEAMKNLLEHHHHHH
- protein production: not failed

Sequence: MSAQDTQSLGVWSDCLTLLRLELLRAVPKSAVGLGCGKKIHANGILDEIFFPLDISIASAYVKTKMNFNPPTLQHLAGRSLMKDEALAISALQDLPMQLFPPLFKDAFTSKQSNILKQMVAAWPFPCLPVGGLMETPPHLETLKAVLDGLDLLMKQKVRLRMWKLQVLDLRDAHHDFWKGYTGIQDLVSSLDVIGKTQPVGNHPIIGGKQVMTVLMNLSFTSRHPSKYIKYLCHWAKQRKNVIQVICQKLEFGAIPAYDSLNVLGVFDLGSIQELEINKCWDMCTLALLAPGLGQMKNLQKLLLKEICITVDWPWDQKTEGLCVKQIFFQFSKLRNLQHLYLNDVYFLNEHLDQVLRCLESPLETLAITHCMLSQSDMKYLSQCPSIHQLKHLDLSGVTFINLSHPFLRSLLERVTATLKTLKLNGCMIMDFQIRALLPVLSQCSQLTEVNFEENSLSMDSLKKLLQHTANLTHLTLEKYPAPDEVYDDTGNVIPHRFIQLCSELMDTLKILRQPNHVYFVSKKCLDCHKYFIYNLEAMLCSCWQ
- protein production: failed

Sequence: MIKKTIGGIIPIFTAVFIPASAGAADLMLAQEYKGQDIAGWAMSEKLDGVRAYWDGKHLMSRQGYAFAPPKGFTAQFPPYPLDGELYSGRGQFEQISATVRSVSSDWRGIRLHVFDVPKAQGNLYQRLAVATQWLKTHPNAPITIIPQIKVRDRQHAMDFLKQIEAQGGEGVMLRQPESRYSGGRSSQLLKLKSQYDDECTVTRHYEGKGRNAGRLGAVGCKNRHGEFRIGSGFKDKDRDNPPKIGTLITYRYRGFTRKGTPKFATFVRVRTDR
- protein production: failed

Sequence: MSSEGRNHNWDYAAIGTPEDFLASWSASRGNLRRFFEDHAAAPINDAAQRQAGEAAATQAVAAIYGMELNEFNAGVDAVAGAIESAGAIHVSIPDPDVPQDVGAAAFFDVDNTLIQGSSLIVFAQGLFRKKFFTIKEILPVVWKQVKFKLTGSENAEDVSRGREQALEFIKGRPVQELVDLCEEIVDQRMADKMWPGTKQLADMHIAAGHQVWLVSATPVQLAQILAQRLGFTGAIGTVAEAKDGVFTGRLVGDILHGPGKRHAVAALASIEQLDLTRCTAYSDSINDLPMLSMVGTAVAVNPDSKLRKEAETRGWDVRDFRSIRKATREYGIPALVTAAFSVAGWRLRRRWRKQ
- protein production: failed

Sequence: STGNAGEWCLMESDPGVFTELIKGFGCRGAQVEEIWSLEPENFEKLKPVHGLIFLFKWQPGEEPAGSVVQDSRLDTIFFAKQVINNACATQAIVSVLLNCTHQDVHLGETLSEFKEFSQSFDAAMKGLALSNSDVIRQVHNSFARQQMFEFDTKTSAKEEDAFHFVSYVPVNGRLYELDGLREGPIDLGACNQDDWISAVRPVIEKRIQKYSEGEIRFNLMAIVSDRKMIYEQKIAELQRQLAEEPMDTDQGNSMLSAIQSEVAKNQMLIEEEVQKLKRYKIENIRRKHNYLPFIMELLKTLAEHQQLIPLVEKAKEKQNAKKAQETK
- protein production: not failed

Sequence: MEMIRGRGIPNGVVQVPNLSANNLLQKFFIASNHFCQRDSEHGENQQEAKKREDEAEEDEKDVELTLGLSLNGQFGTDPRSRKRRHFELGRSSSIPEGFVFDEQRSGGGNGGDMRRIVGRGGSDMFQLDRTRSLPVVTEMDIEKERKVSEKTRAFMESPVTNRGAYLTKDKNRGQAVETEKPRAFLEFKIPPTKEGKKEKDRLVVTGPVNGKGKNGNTAKKQKNNVENSGMEKARNILEDMPCVSTRDVGADGKRVEGFLYWYGGNKEEVKIVCVCHGSFLSPAEFVRHGGGTVSDDDGGDVMINPLRHIVVKLPSSSI
- protein production: failed

Sequence: KEQILSSEQLARKMMLELGDKKQEHLVAIYMDTQNRIIEQRTIFIGTVRRSVAEPREILHYACKNMATSLIIIHNHPSGSPKPSESDLSFTKKIKRSCDHLGIVCLDHIIVGKNKYYSFREEADIL
- protein production: not failed

Sequence: MKRLILPIACGICTVTSDAQTDKQPHPNVIFIYADDLGYKDLSCTGSRFYETPHIDKLAREGVCFTQSYAACPVSSPSRAALLTGKYPARINLTDYIPGDRAYGPHKNQRLASLPFNLHLSKDEITMAEAFRQNGYSTFMAGKWHLAESAEYYPEQNGFDINIGGNNTGHPSKGYFSPYGNPQLKDGPEGEYLTDRLTDEVIRYISEPKEKPFFVYLSYYTVHLPLQAKAEKIAKYRRKLSRAVPADSSFVKKGETYHKLVQDIPAYAAMVESLDENIGRLLDTLHRSGLDERTIVVFTSDNGGMATSNTTRNIPTSNLPLRAGKGYLYEGGIKVPAIIRWSGHLKGRQVSDTPIIGTDYYPTLLDLCGLPLLPGQHVDGVSMKPVLQGGRLSRPSLFWHYPHYSGGLGGRPSAAIREGDYKLIEFFEDHHVELYNVIQDESEEKDLSQIYPEIADGLRKKLYLWYKEVGARMPVDNPHYVSPVKDSDSFENKLEHHHHHH
- protein production: failed

Sequence: MTQHLTIAQTYLAAWNEEDNERRRHLVGQAWAENTRYVDPLMQGEGQQGIAAMIEAARQKFPGYRFVLAGTPDGHGNFTRFSWRLISPDGDDVAGGTDVVSLNTEGRIDNVVGFLDGAVS
- protein production: not failed

Sequence: MPESRTVALVTLGCARNEVDSEELAGRLEADGWKLVDDAEEADVAVVNTCGFVEAAKKDSVDALLEANDLKGHGRTQAVVAVGCMAERYGKELADALPEADGVLGFDDYADISDRLQTILNGGIHAAHTPRDRRKLLPISPAERQEAGAAVALPGHGPTDLPEGVAPASGPRAPLRRRLDGSPVASVKLASGCDRRCSFCAIPSFRGSFISRRPSDVLNETRWLAEQGVKEIMLVSENNTSYGKDLGDIRLLESLLPNLAEVDGIERVRVSYLQPAEMRPGLIDVLTSTEKVAPYFDLSFQHSAPNVLRAMRRFGDTDRFLELLDTIRSKAPEAGVRSNFIVGFPGESEADLAELERFLNHARLDAIGVFGYSDEEGTEAATYGDKLDEDVVAERLARVSRLAEELVSQRADERVGATVRVLVESVDPAGEGDGVRGRAEHQAPETDGQVLLTSGAGLSVGRMVDAKVVGTEGVDLVAEPLLGSPEWSEEAGRLEHHHHHH
- protein production: failed
